The results in this text go back to doi:10.1101/2020.05.14.095364 (bioRxiv, 2020).

As a reminder, the Kd is the free concentration of one partner at which half of the binding sites on the other are occupied at equilibrium, for simple one-to-one binding. The low end stands for tighter binding, the high end for weaker binding.

First the molecules themselves.
B1: GFP-tagged hZO-1 (residues 1619-1748), isolated ZU5 fragment (domain or fragment, human, UniProt Q07157 1619-1748, looked up)
chain: SAVEEDEDEDGHTVVATARGIFNSNGGVLSSIETGVSIIIPQGAIPEGVEQEIYFKVCRDNSILPPLDKEKGETLLSPLVMCGPHGLKFLKPVELRLPHCDPKTWQNKCLPGDPNYLVGANCVSVLIDHF
B2: GST-CGN(1-70) (domain or fragment, canine, UniProt A7YH32 1-70, looked up)
chain: MEQASTMAEPRGPVDHGVQIRFITEPVGNAEMDTLRRGGRRPAKDARANTYGVAVRVQGIAGQPFVVLNS

The target of experiment [1] is B2. In words: pull-down.
The target of experiment [2] is B1. As to the kind of experiment: quantitative GST-pulldown supernatant depletion assay.

For B1, the “fold binding against the other ZO-1 fragments” value in experiment [1] is greater than 4 fold.

B2 yielded a Kd in experiment [2] of 40.4 nM.
